According to publication PMC4207043, “Distinct N-terminal regions of the exomer secretory vesicle cargo Chs3 regulate its trafficking itinerary” (Frontiers in Cell and Developmental Biology, 2014):

Experiments:
[1] = biological target: T1, Recombinant "core" exomer complex (Chs5 residues 1–77 and Chs6-6xHis) (S. cerevisiae, UniProt Q12114 1-77; P40955 1-746); assay: pull-down; GST-Chs3 fragments held on glutathione resin; 10 μl of 5 mg/ml purified exomer added to resin in 500 μl PBS + 1 mM DTT, ~1 h at 4°C, washed 3 times; exomer detected by Western blot with anti-6xHis antibody (by Coomassie staining in Figure 5C); details: both partners purified
T1 construct: Chs5, S. cerevisiae, residues 1–77; Chs6, S. cerevisiae; The end of the 6xHis tag is read from the printed name Chs6-6xHis; also called Chs5(1–77)/Chs6-6xHis exomer complex; purified exomer; source: recombinant, purified as described for the Chs5(1–299)/Chs6-6xHis construct (Paczkowski et al., 2012); not shown: His6, C-terminal, kept
T1 sequence (looked up) 1: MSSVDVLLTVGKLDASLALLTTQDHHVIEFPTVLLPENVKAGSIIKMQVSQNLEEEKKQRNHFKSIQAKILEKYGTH
T1 sequence (looked up) 2: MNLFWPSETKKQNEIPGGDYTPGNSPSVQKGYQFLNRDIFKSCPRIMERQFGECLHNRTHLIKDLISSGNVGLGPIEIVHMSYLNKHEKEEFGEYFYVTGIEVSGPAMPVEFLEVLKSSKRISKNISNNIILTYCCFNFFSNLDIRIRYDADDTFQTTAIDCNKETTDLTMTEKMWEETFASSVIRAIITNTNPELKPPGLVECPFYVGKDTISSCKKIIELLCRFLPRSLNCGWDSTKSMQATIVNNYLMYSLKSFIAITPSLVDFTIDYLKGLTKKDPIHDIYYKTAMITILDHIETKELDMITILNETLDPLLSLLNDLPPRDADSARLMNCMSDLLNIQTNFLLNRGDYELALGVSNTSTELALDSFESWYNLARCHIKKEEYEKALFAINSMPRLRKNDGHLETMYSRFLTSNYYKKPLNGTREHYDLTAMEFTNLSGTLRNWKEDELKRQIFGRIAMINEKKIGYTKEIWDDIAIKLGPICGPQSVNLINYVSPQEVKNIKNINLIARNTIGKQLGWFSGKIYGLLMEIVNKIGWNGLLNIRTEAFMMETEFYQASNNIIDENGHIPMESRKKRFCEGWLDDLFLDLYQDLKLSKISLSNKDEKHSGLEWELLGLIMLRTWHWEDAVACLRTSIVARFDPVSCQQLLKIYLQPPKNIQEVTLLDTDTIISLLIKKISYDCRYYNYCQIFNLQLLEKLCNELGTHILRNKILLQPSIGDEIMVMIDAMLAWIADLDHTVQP

Chs6-6xHis = biological target: T2, Chs6-6xHis (S. cerevisiae, UniProt P40955 1-746); assay: crystal structure; Chs5(1–77)/Chs6-6xHis exomer co-crystallised with Chs3 peptide, hanging drop vapor diffusion; 0.3 M ammonium sulfate, 0.1 M citric acid pH 4.0; molar ratio 3.85:1 peptide:exomer; details: both partners purified
T2 construct: Chs6, S. cerevisiae; The Chs6 chain of m1, written alone for the pairs that touch in the crystal structure; The end of the tag is read from the printed name; also called His-tagged Chs6; source: recombinant, purified with Chs5(1–77) as described (Paczkowski et al., 2012); not shown: His6, C-terminal, kept
T2 sequence (looked up): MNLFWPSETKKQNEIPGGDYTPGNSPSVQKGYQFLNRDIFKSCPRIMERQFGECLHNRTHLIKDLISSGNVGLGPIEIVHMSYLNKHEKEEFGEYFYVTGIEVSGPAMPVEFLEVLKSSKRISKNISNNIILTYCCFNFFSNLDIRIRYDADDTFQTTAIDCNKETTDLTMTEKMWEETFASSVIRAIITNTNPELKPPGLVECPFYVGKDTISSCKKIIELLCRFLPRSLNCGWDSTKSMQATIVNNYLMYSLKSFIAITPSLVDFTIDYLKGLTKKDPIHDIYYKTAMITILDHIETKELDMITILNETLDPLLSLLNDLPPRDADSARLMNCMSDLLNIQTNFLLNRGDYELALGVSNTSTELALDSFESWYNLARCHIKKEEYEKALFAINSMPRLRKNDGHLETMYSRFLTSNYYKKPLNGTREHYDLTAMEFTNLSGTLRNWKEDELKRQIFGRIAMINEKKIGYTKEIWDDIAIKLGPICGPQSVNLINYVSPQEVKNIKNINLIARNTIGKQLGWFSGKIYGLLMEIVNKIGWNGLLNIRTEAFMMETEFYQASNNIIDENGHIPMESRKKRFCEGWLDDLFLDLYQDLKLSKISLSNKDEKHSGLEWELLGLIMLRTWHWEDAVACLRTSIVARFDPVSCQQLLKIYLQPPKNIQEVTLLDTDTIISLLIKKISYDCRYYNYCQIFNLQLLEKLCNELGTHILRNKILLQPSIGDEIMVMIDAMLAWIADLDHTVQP

Row | Binder | binding result [1] | binding result (Chs6-6xHis)
1 | HSVGSGAPHRQGSLVRPERSRLNNP (domain or fragment, S. cerevisiae, UniProt P29465 28-52, looked up, Chs3 (chitin synthase), S. cerevisiae, residues 28–52; Vector pGEX-2T; the end of GST is read from the printed name GST-Chs3; source: E. coli Rosetta2 (DE3), isolated from cleared lysate on glutathione resin; not shown: GST, N-terminal, kept) [GST-Chs3 fragment, residues 28–52] | binds | –
2 | GST-Chs3(1–52) (domain or fragment, S. cerevisiae, UniProt P29465 1-52, looked up, Chs3 (chitin synthase), S. cerevisiae, residues 1–52; Vector pGEX-2T; the end of GST is read from the printed name GST-Chs3; also called Residues 1–52; wild-type GST-Chs3(1–52) fragment; source: E. coli Rosetta2 (DE3), isolated from cleared lysate on glutathione resin; not shown: GST, N-terminal, kept) MTGLNGDDPDDYYLNLNQDEESLLRSRHSVGSGAPHRQGSLVRPERSRLNNP | binds | –
3 | MTGLNGDDPHSVGSGAPHRQGSLVRPERSRLNNP (domain or fragment, S. cerevisiae, UniProt P29465 1-52, looked up, Chs3 (chitin synthase), S. cerevisiae, residues 1–52 lacking residues 10–27; Vector pGEX-2T; the end of GST is read from the printed name GST-Chs3; source: E. coli Rosetta2 (DE3), isolated from cleared lysate on glutathione resin; not shown: GST, N-terminal, kept) [GST-Chs3 fragment, residues 1–52 with residues 10–27 deleted] | binds | –
4 | Chs5(1–77) (domain or fragment, S. cerevisiae, UniProt Q12114 1-77, looked up, Chs5, S. cerevisiae, residues 1–77; The Chs5 chain of m1, written alone for the pair that touches in the crystal structure; also called Chs5 residues 1–77; truncated Chs5; source: recombinant, purified with Chs6-6xHis as described (Paczkowski et al., 2012)) MSSVDVLLTVGKLDASLALLTTQDHHVIEFPTVLLPENVKAGSIIKMQVSQNLEEEKKQRNHFKSIQAKILEKYGTH | – | binds
5 | DDYYLNLNQDEESLLRSR (peptide, UniProt P29465 10-27, looked up, Chs3 (chitin synthase), S. cerevisiae, residues 10–27; only residues 12–25 are visible in the structure; also called peptide of Chs3 residues 10–27; source: synthetic peptide (Genscript, 95% purity)) [Chs3 peptide matching residues 10–27] | – | binds
